Measured values from publication PMC9182242, “Copper Binding and Oligomerization Studies of the Metal Resistance Determinant CrdA from Helicobacter pylori” (Molecules, 2022).

Target: the molecule itself
Experiment: SEC; analytical SEC, Superose 12 10/300 GL, 20 mM Tris-base pH 7.5, 150 mM NaCl, 3.8 mM nOG; HpCrdA incubated with EDTA (metal chelated); monomer-dimer equilibrium

B1: CrdA protein from Helicobacter pylori (HpCrdA) (natural protein)
chain: QTLKANDLEVKIKSVGNPIKGDNTFILSPTLKGKALEKAIVRVQFMMPEMPGMPAMKEMAQVSEKNGLYEAKTNLSMNGTWQVRVDIKSKEGQVYRAKTSLDL
notes: predicted mass of the monomer ~12.4 kDa; Residues of the pGEX-6P-1 linker probably remain after PreScission cleavage (surmised); also called HP1326; apo-HpCrdA; source: E. coli BL21(DE3), purified (GSTrap, GST cleaved with PreScission protease, Superdex 75 SEC); not shown: GST, N-terminal, cleaved
stoichiometry N: 2
